Source: the DeepSol protein solubility set

experiment: soluble on expression in E. coli; label from the status in PepcDB or PDB records

Sequence | soluble on expression in E. coli
KKSPMLCGQYPVKSEGKELKIVVQPETQHRARYLTEGSRGSVKDRTQQGFPTVKLEGHNEPVVLQVFVGNDSGRVKPHGFYQACRVTGRNTTPCKEVDIEGTTVIEVGLDPSNNMTLAVDCVGILKLRNADVEARIGIAGSKKKSTRARLVFRVNIMRKDGSTLTLQTPSSPILCTQPAGVPEILKKSLHSCSVKGEEEVFLIGKNFLKGTKVIFQENVSDENSWKSEAEIDMELFHQNHLIVKVPPYHDQHITLPVSVGIYVVTNAGRSHDVQPFTYTPD | soluble
MTVTDRIFQNVAELSVPNFFITVEFSVMGNEMPEHIESFVLEKYQAILHGANGRKFVYTEGGWRLFFTFFPTDKVVDERYALKNKVQMKFHK | not soluble
MIDADAIKMRILSMMEQLGMTPSAFADRAGISRSALTHITSGRNKVTLDMINKIMQGFDEWSAEWIIFGKGPQQSNKTAFENDLFSYSSVPEQELHTRTKDNCGIQSPSGRLEPEIKIVQMPAKQIERITVFYTDGSYQEFRSNKE | not soluble
MGSDKIHHHHHHMIGRKRKYEDPHIRSFHELLSGHNPVLYKKEDLLAYDCDGFTIHKHLPKAVVFPENTREVASIVRYCHDHNLPFLARGAGTGLSGGAIPINGEVIISLVRMKRLLEVDLKNRRAIVEPGYVNLKLTQSIEDKGYYYAPDPSSQYCCTIGGNVAENAGGAHCLKYGVTTNHILGMEVVLPNGDIVEIGKAGILDEPGYDLLGLMTGSEGTLGIVTKITVRILKHPEAKQTVLAYFDKVSDASHTVSDIISEGIVPAALEMMDRIAMEGVEAAAFPIGHLLDAEAVLLIEVDGISAGMDQQIERILTVCRKHHVREVKDEMVGEPKNRLWCHGCHLTRLPRTRWSDPADKASGRAFNDSKNQRNIRATNRKYFSRR | not soluble
MTIEKIFTPQDDAFYAVITHAAGPQGALPLTPQMLMESPSGNLFGMTQNAGMGWDANKLTGKEVLIIGTQGGIRAGDGRPIALGYHTGHWEIGMQMQAAAKEITRNGGIPFAAFVSDPCDGRSQGTHGMFDSLPYRNDAAIVFRRLIRSLPTRRAVIGVATCDKGLPATMIALAAMHDLPTILVPGGATLPPTVGEDAGKVQTIGARFANHELSLQEAAELGCRACASPGGGCQFLGTAGTSQVVAEALGLALPHSALAPSGQAVWLEIARQSARAVSELDSRGITTRDILSDKAIENAMVIHAAFGGSTNLLLHIPAIAHAAGCTIPDVEHWTRINRKVPRLVSVLPNGPDYHPTVRAFLAGGVPEVMLHLRDLGLLHLDAMTVTGQTVGENLEWWQASERRARFRQCLREQDGVEPDDVILPPEKAKAKGLTSTVCFPTGNIAPEGSVIKATAIDPSVVGEDGVYHHTGRVRVFVSEAQAIKAIKREEIVQGDIMVVIGGGPSGTGMEETYQLTSALKHISWGKTVSLITDARFSGVSTGACFGHVSPEALAGGPIGKLRDNDIIEIAVDRLTLTGSVNFIGTADNPLTPEEGARELARRQTHPDLHAHDFLPDDTRLWAALQSVSGGTWKGCIYDTDKIIEVINAGKKALGI | not soluble
MGSDKIHHHHHHMNQSRLICFVALLFVLSGCQGKPVTIPEEDGPMVVVSHIKESTFSFISKNKMELLETEESPYPLTAMVDIEGGQIVVTSQTEDTLFLFDTVQGKILPFITLNKGLTVMEFDRAKRMLFVADTLNDEIIQIDVDKREVQTRIAIDCSPTDLQVIDDLLFILSSETSTVFIYDMRSETMIQSFSVTERPAGMFYDGSHLWIGGHGPYGDLNKRIFAYNIKTGVIDQEVEVGLMPITIYQDQHDTYVYVLCHGDDALYKVDLDAKRVEASLSVGHNPYYLKGDGDHLYVSNLDDDTFSIIERTTFQVVNEINVPAGPYAIVLEEEE | not soluble
MNVVNNSRDVIYSSGIVFGTSGARGLVKDFTPQVCAAFTVSFVAVMQEHFSFDTVALAIDNRPSSYGMAQACAAALADKGVNCIFYGVVPTPALAFQSMSDNMPAIMVTGSHIPFERNGLKFYRPDGEITKHDEAAILSVEDTCSHLELKELIVSEMAAVNYISRYTSLFSTPFLKNKRIGIYEHSSAGRDLYKPLFIALGAEVVSLGRSDNFVPIDTEAVSKEDREKARSWAKEFDLDAIFSTDGDGDRPLIADEAGEWLRGDILGLLCSLALDAEAVAIPVSCNSIISSGRFFKHVKLTKIGSPYVIEAFNELSRSYSRIVGFEANGGFLLGSDICINEQNLHALPTRDAVLPAIMLLYKSRNTSISALVNELPTRYTHSDRLQGITTDKSQSLISMGRENLSNLLSYIGLENEGAISTDMTDGMRITLRDGCIVHLRASGNAPELRCYAEANLLNRAQDLVNTTLANIKKRCLL | not soluble
AHHHHHHGSIILDNHFHVDPNHGLFLEAVKQFQRAGGTHLIVVYKTAHDYGFPGLKAEDFMKAMDFHIELVEKINRETQVKAYAVVGVHPAEFDYLARNKGLEFARNEVMKALEYAQKLCLEGKAVGIGEVGRPHYEVPQQIWEVSIEIMKYAMELAKDADCAVQLHTESFNEEKFRELGEYIREVGIKPYKVVKHFSPPLVNVAKEVGVFPSIIASKKNIEEAIKQGNRFLMETDYIDDKRRPGAVLGPKTVPKRTKEFLQRGIFTEEDVYKIHVENPKKVYGIEI | not soluble
MTVKIALLGFGTVASGVPFLLKENGGKINQSAHSDIKVAKVLVKDEDEKNRLLAAGNDFNFVTNVDDILSDQDITIVVELMGRIEPAKTFITRALEAGKHVVTANKDLLAVHGAELLEIAQANKVALYYEAAVAGGIPILRTLANSLASDKITRVLGVVNGTSNFMVTKMVEEGWSYDDALAEAQRLGFAESDPTNDVDGIDAAYKMVILSQFAFGMKIAFDDVAHKGIRNITPEDVAVAQELGYVVKLVGSIEETSSGIAAEVTPTFLPKAHPLASVNGVMNAVFVESIGIGESMYYGPGAGQKPTATSVVADIVRIVRRLNDGTIGKDFNEYSRDLVLANPEDVKANYYFSILALDSKGQVLKLAEIFNAQDISFKQILQDGKEGDKARVVIITHKINKAQLENVSAELKKVSEFDLLNTFKVLGE | soluble
GHMYEVDHADVYDLFYLGRGKDYAAEASDIADLVRSRTPEASSLLDVACGTGTHLEHFTKEFGDTAGLELSEDMLTHARKRLPDATLHQGDMRDFRLGRKFSAVVSMFSSVGYLKTTEELGAAVASFAEHLEPGGVVVVEPWWFPETFADGWVSADVVRRDGRTVARVSHSVREGNATRMEVHFTVADPGKGVRHFSDVHLITLFHQAEYEAAFTAAGLRVEYLEGGPSGRGLFVGVPA | soluble
MPSGGQRKHTISNKTRKRPGKDLDQIHEDLKPEKAAKLLQQEIDYDLPGNGQFYCIECERHFVDEKTRQLHRKTKLHKNRVKTLKEVPYTQAEANAAGGSGFFPAITLKTRVELPKQPEIPIPVVAET | soluble
MSLAESVFAERIVQNLLDTDFYKLTMMQAVLHNYPNAEVEWEFRCRNAEDLRPYLAEIRYQIERLAEVEVTADQLAFLERIPFMKPDFIRFLSLFRFNLRYVHTGIEDGQLAIRLRGPWLHVILFEVPLLAIVSEVRNRYRYREVVLEQVGEQLYRKLDWLSAQASSEELAEFQVADFGTRRRFSYRTQEEVVHILKRDFPGRFVGTSNVHLAREYDLKPIGTMAHEWLMAHQQLGPRLVDSQQAALDCWVREYRGQLGIALTDCITMDAFLDDFDLYFAKLFDGLRHDSGDPLAWAEKAIAHYRRLGIDPLSKTLVFSDGLDMPKALQLFRALRGKINVSFGIGTNLTCDIPGVEPMNIVLKMTACNGHPVAKISDAPGKTQCRDENFVAYLRHVFNVPAEGHHHHHH | soluble
MSEQKRRTIQIAISEDHYEELQKALELLKGTQLPFSTTVEQFVELILSNYVATSNKISSLAKSGFDVASLQQELEKIGNLSGVDDNLKGFLSELLKTSRNGFSNPNKDGKKNDDDNNSSSKS | soluble
KPLQRKLASGMVKKHSIIRALNKVYKRDVYFPGEEELNEVLSDEHKSGANTWEETTELNFEPDMTTVTTEDQSAKPPEQKTPSKDVLDFTQNFLQP | not soluble
MSLSMSTIAKVAARAGVSPTTVSHVINHSDRVSKPLRERVEAAIKDLGYKPNPQAQSLRTGRTNIVAMLIPDIRNPFYPELVKAAQSELEVAGLDMLIFNTDVPGGQSQDHGREYLRQIGNKRVDGLIVGDFALHGMHDALMRVETPTVFIGNLPNHAVDCVRIDDFGGGYQMGAYLAGKGHRRIAHVTGPSFFAEAMSRADGFEQGLADHGATPDPGLRFEGSYLAPSGKAAAEWLLAGHGGDLPSAVFFGNYLMAAGALAEFYDRGIRIPDDFKVAVFGDQPQLEYVRPRLTRVGNAPAELARRATRMLLERINGTYEGEPRSEVVSCVLREFETEGHHHHHH | soluble
